Results as given in patent US20250215089A1 (HARBOUR BIOMED SHANGHAI, published 2025).
Where “and” joins values, the source holds several entries; their conditions need not be identical. Equal entries are not always repeated. Where two headings read alike, the source gives them in different places.

Tests used:
[1] = target: T1, human PD-L1 (human, UniProt Q9NZQ7 19-290); test: FACS, CHO-K1/hPD-L1 cells
T1 construct: whole, on cells; also called hPD-L1; CD274
Method: Specifically, the cells expressing PD-L1 were digested and resuspended in PBS buffer containing 2% BSA. The cells were adjusted to a cell density of 1×10⁶ cells/mL, respectively. The cells were seeded in a 96-well V-bottom plate (Corning, #3894) at 100 μL/well, and the antibody to be tested at 2×final concentration with 4-fold concentration gradient dilution was then added at 100 μL/well. The cells were incubated at 4° C. for 2 hours in the dark. After the incubation, the cells were rinsed twice by adding pre-chilled PBS containing 2% BSA at 100 μL/well, and centrifuged at 500 g at 4° C. for 5 minutes, and the supernatant was discarded. […] The cells were washed twice by adding pre-chilled PBS containing 2% BSA at 100 µL/well, and centrifuged at 500 g at 4° C. for 5 minutes, and the supernatant was discarded. Finally, the cells were resuspended in pre-chilled PBS buffer containing 2% BSA at 200 μL/well. The fluorescence signal values were read using a BD FACS CANTOII flow cytometer or ACEA NovoCyte flow cytometer, and the data were processed and analyzed using FlowJo v10 software (FlowJo, LLC).
(§1) Data processing and graphical analysis were performed using GraphPad Prism 8 software. The binding curve of the antibody to the target cell and parameters, such as EC₅₀ value were obtained by four-parameter nonlinear fitting.

[2] = target: T1, human PD-L1; test: cell-based or functional assay
[3] = target: T2, human CD40 (human, UniProt P25942 21-277); test: cell-based or functional assay
T2 sequence (P25942 21-277): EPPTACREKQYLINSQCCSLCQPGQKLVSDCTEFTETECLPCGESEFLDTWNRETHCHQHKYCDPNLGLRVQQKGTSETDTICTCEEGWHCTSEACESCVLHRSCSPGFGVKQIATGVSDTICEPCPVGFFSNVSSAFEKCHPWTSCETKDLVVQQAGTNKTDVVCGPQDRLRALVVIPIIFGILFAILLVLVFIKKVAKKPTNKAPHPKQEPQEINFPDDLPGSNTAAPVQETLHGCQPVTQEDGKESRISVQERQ

[4] = target: T2, human CD40; test: FACS, Raji cells
Method: The cells were incubated at 4° C. for 1 hours in the dark. After the incubation, the cells were rinsed twice by adding pre-chilled PBS at 100 μL/well, and centrifuged at 500 g at 4° C. for 5 minutes, and the supernatant was discarded. Then, a fluorescent secondary antibody (goat anti-human IgG (H+L) secondary antibody, Alexa Fluor® 488 conjugate, Invitrogen, #A11013, 1:1000 dilution) was added at 100 μL/well, and the cells were incubated at 4° C. for 30 minutes in the dark. The cells were washed twice with pre-chilled PBS at 200 μL/well, and centrifuged at 500 g at 4° C. for 5 minutes, and the supernatant was discarded. Finally, the cells were resuspended in pre-chilled PBS at 200 μL/well. The fluorescence signal values were read using a BD FACS CANTOII flow cytometer or ACEA NovoCyte flow cytometer, and the data were processed and analyzed using FlowJo v10 software (FlowJo, LLC).
as §1

[5] = target: T1, human PD-L1; test: FACS, NCI-H226 cells
Procedure, shortened: (§2)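 Binding of antibodies to PD-L1-expressing cells (1×10⁶ cells/mL in PBS/2% BSA), tested in 4-fold dilution series. Incubation 2 h at 4° C in the dark, then washes. Fluorescence read by flow cytometry.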

[6] = target: T3, cynomolgus monkey CD40 (cynomolgus monkey); test: FACS, CHO-K1/cyCD40 cells
T3 construct: whole, on cells; also called cyCD40
Procedure, shortened: (§3)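 Cells carrying bound test antibody were kept 1 h at 4° C in the dark, washed in cold PBS, then stained 30 min at 4° C with Alexa Fluor 488 goat anti-human IgG (H+L) (1:1000). Fluorescence signal was read by flow cytometry.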

[7] = target: T4, cynomolgus monkey PD-L1 (cynomolgus monkey); test: FACS, CHO-K1/cyPD-L1 cells
T4 construct: whole, on cells; also called cyPD-L1
Procedure, shortened: as §2

[8] = target: T2, human CD40; test: FACS, Raji cells; remark: listed apart in the source
Procedure, shortened: as §3

[9] = target: T2, human CD40; test: cell-based or functional assay; remark: listed apart in the source
[10] = target: T2, human CD40; test: FACS, CHO-K1/hCD40 cells
Procedure, shortened: as §3

[11] = target: T1, human PD-L1; test: cell-based or functional assay; remark: listed apart in the source
[12] = target: T1, human PD-L1; test: FACS, CHO-K1/hPD-L1 cells; remark: listed apart in the source
Procedure, shortened: as §2

T1 sequence (Q9NZQ7 19-290): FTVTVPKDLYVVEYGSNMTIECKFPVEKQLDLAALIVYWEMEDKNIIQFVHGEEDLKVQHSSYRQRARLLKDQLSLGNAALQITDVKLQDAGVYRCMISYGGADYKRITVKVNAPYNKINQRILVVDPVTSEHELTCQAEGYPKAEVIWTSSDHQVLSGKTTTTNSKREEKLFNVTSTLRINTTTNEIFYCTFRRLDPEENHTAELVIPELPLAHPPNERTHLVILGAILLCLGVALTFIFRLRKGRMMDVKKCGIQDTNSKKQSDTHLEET

Row | Binder | EC50 [1] | Maximum MFI [1] [MFI] | EC50, Jurkat-NFAT-hPD1 reporter [2] [nM] | Maximum (RLU), Jurkat-NFAT-hPD1 reporter [2] [RLU] | EC50, HEK293-hCD40-NFκB reporter, crosslinked [3] [nM] | EC50, HEK293-hCD40-NFκB reporter, uncrosslinked [3] [nM] | Fold (EC50 in the absence of crosslinking/EC50 in the presence of crosslinking) [3] [fold] | Maximum fold, HEK293-hCD40-NFκB reporter, crosslinked [3] [fold] | Maximum fold, HEK293-hCD40-NFκB reporter, uncrosslinked [3] [fold] | EC50 [4] [nM] | Maximum MFI [4] [MFI] | other results
1 | PR000960 (antibody, human IgG1, V domains shown, Fully human heavy-chain-only antibody (HCAb): VH fused to human IgG1 Fc; no light chain) VH: QVQLVESGGGVVQPGMSLRLSCAASGFNFSNYGMYWVRQAPGKGQEWVAIIWYDGTKKHYADSVKGRFTISRDNSKNTLYLEMNSLRVEDTAVYYCAKNRAIFGVVPDASDIRGQGTMVTVSS | 0.79 nM | 23700 | 0.31 | 18400 |  |  |  |  |  |  |  | 
2 | PR002082 (antibody, human IgG1, V domains shown, HCAb; PTM variant of PR000960 (N28T, N31S); human IgG1 Fc; no light chain) VH: QVQLVESGGGVVQPGMSLRLSCAASGFTFSSYGMYWVRQAPGKGQEWVAIIWYDGTKKHYADSVKGRFTISRDNSKNTLYLEMNSLRVEDTAVYYCAKNRAIFGVVPDASDIRGQGTMVTVSS | 0.86 nM and 1.31 nM |  | 0.217 | 12100 |  |  |  |  |  |  |  | 
3 | PR005878 (antibody, human IgG1, V domains shown, HCAb; human IgG1 Fc; no light chain) VH: QVQLVESGGGVVQPGMSLRLSCAASGFTFSSYGMYWVRQAPGKGQEWVASIRYTGTEKHYADSVKGRFTISRDNSKNTLYLEMNSLRVEDTAVYYCAKNRALFGVIPDDSDIRGQGTMVTVSS | 1.08 nM | 419000 | 0.166 | 13400 |  |  |  |  |  |  |  | 
4 | PR006245 (antibody, human IgG1, V domains shown, HCAb; human IgG1 Fc; no light chain) VH: QVQLVESGGGVVQPGMSLRLSCAASGFDFSSYGMYWVRQAPGKGQEWVASIRYTGTEKHYADSVKGRFTISRDNSKNTLYLEMNSLRVEDTAVYYCAKNRAIFGVVPDASDIRGQGTMVTVSS | 0.964 nM | 405000 | 0.151 | 13800 |  |  |  |  |  |  |  | 
5 | PR006495 (antibody, human IgG1, kappa, V domains shown, Variant of PR003379, L: N92A; human IgG1 L234A, L235A, G237A) VH: QVQLVQSGAEVKKPGASVKVSCKASGYTFAGYYMYWVRQAPGQGLEWMGWINPDSGAPTYAQKFQGRVTMTRDTSISTAYMELSRLRSDDTAVYYCAREKIYYGSGNYYPSFDYWGQGTLVTVSS VL: DIQLTQSPSFLSASVGDRVTITCRASQGISSYLAWYQQKPGKAPKLLIYAASTLQSGVPSRFSGSGSGTEFTLTISSLQPEDFATYYCQQLASYPWTFGQGTKVEIKR |  |  |  |  | 0.109 | 0.905 | 8.28 | 5.54 | 4.92 | 0.356 | 8870 | 
6 | PR006504 (antibody, human IgG1, kappa, V domains shown, Variant of PR003379, L: N92V; human IgG1 L234A, L235A, G237A) VH: QVQLVQSGAEVKKPGASVKVSCKASGYTFAGYYMYWVRQAPGQGLEWMGWINPDSGAPTYAQKFQGRVTMTRDTSISTAYMELSRLRSDDTAVYYCAREKIYYGSGNYYPSFDYWGQGTLVTVSS VL: DIQLTQSPSFLSASVGDRVTITCRASQGISSYLAWYQQKPGKAPKLLIYAASTLQSGVPSRFSGSGSGTEFTLTISSLQPEDFATYYCQQLVSYPWTFGQGTKVEIKR |  |  |  |  |  |  |  |  |  | 0.35 | 12200 | 
7 | PR006511 (antibody, human IgG1, kappa, V domains shown, Variant of PR003379, L: S93N; human IgG1 L234A, L235A, G237A) VH: QVQLVQSGAEVKKPGASVKVSCKASGYTFAGYYMYWVRQAPGQGLEWMGWINPDSGAPTYAQKFQGRVTMTRDTSISTAYMELSRLRSDDTAVYYCAREKIYYGSGNYYPSFDYWGQGTLVTVSS VL: DIQLTQSPSFLSASVGDRVTITCRASQGISSYLAWYQQKPGKAPKLLIYAASTLQSGVPSRFSGSGSGTEFTLTISSLQPEDFATYYCQQLNNYPWTFGQGTKVEIKR |  |  |  |  |  |  |  |  |  | 0.386 | 11800 | 
8 | PR006496 (antibody, human IgG1, kappa, V domains shown, Variant of PR003379, L: N92F; human IgG1 L234A, L235A, G237A) VH: QVQLVQSGAEVKKPGASVKVSCKASGYTFAGYYMYWVRQAPGQGLEWMGWINPDSGAPTYAQKFQGRVTMTRDTSISTAYMELSRLRSDDTAVYYCAREKIYYGSGNYYPSFDYWGQGTLVTVSS VL: DIQLTQSPSFLSASVGDRVTITCRASQGISSYLAWYQQKPGKAPKLLIYAASTLQSGVPSRFSGSGSGTEFTLTISSLQPEDFATYYCQQLFSYPWTFGQGTKVEIKR |  |  |  |  | 0.217 | 0.43 | 1.98 | 5.03 | 4.43 | 0.277 | 9300 | 
9 | PR006497 (antibody, human IgG1, kappa, V domains shown, Variant of PR003379, L: N92Y; human IgG1 L234A, L235A, G237A) VH: QVQLVQSGAEVKKPGASVKVSCKASGYTFAGYYMYWVRQAPGQGLEWMGWINPDSGAPTYAQKFQGRVTMTRDTSISTAYMELSRLRSDDTAVYYCAREKIYYGSGNYYPSFDYWGQGTLVTVSS VL: DIQLTQSPSFLSASVGDRVTITCRASQGISSYLAWYQQKPGKAPKLLIYAASTLQSGVPSRFSGSGSGTEFTLTISSLQPEDFATYYCQQLYSYPWTFGQGTKVEIKR |  |  |  |  | 0.158 | 0.479 | 3.03 | 4.77 | 4.61 | 0.252 | 9200 | 
10 | PR007619 (bispecific antibody, human IgG1, kappa, VH of PR006246 (PD-L1) - GS_3 - heavy chain of CD40 IgG PR006504; human IgG1 L234A/L235A/G237A; also called PD-L1×CD40) heavy: QVQLVESGGGVVQPGMSLRLSCAASGFDFSSYGMYWVRQAPGKGQEWVASIRYTGTEKHYADSVKGRFTISRDNSKNTLYLEMNSLRVEDTAVYYCAKNRAIFGVIPDDSDIRGQGTMVTVSSGGSQVQLVQSGAEVKKPGASVKVSCKASGYTFAGYYMYWVRQAPGQGLEWMGWINPDSGAPTYAQKFQGRVTMTRDTSISTAYMELSRLRSDDTAVYYCAREKIYYGSGNYYPSFDYWGQGTLVTVSSASTKGPSVFPLAPSSKSTSGGTAALGCLVKDYFPEPVTVSWNSGALTSGVHTFPAVLQSSGLYSLSSVVTVPSSSLGTQTYICNVNHKPSNTKVDKKVEPKSCDKTHTCPPCPAPEAAGAPSVFLFPPKPKDTLMISRTPEVTCVVVDVSHEDPEVKFNWYVDGVEVHNAKTKPREEQYNSTYRVVSVLTVLHQDWLNGKEYKCKVSNKALPAPIEKTISKAKGQPREPQVYTLPPSREEMTKNQVSLTCLVKGFYPSDIAVEWESNGQPENNYKTTPPVLDSDGSFFLYSKLTVDKSRWQQGNVFSCSVMHEALHNHYTQKSLSLSPGK light: DIQLTQSPSFLSASVGDRVTITCRASQGISSYLAWYQQKPGKAPKLLIYAASTLQSGVPSRFSGSGSGTEFTLTISSLQPEDFATYYCQQLVSYPWTFGQGTKVEIKRTVAAPSVFIFPPSDEQLKSGTASVVCLLNNFYPREAKVQWKVDNALQSGNSQESVTEQDSKDSTYSLSSTLTLSKADYEKHKVYACEVTHQGLSSPVTKSFNRGEC |  |  |  |  |  |  |  |  |  |  |  | EC50 [5]: 0.366 nM; Maximum MFI [5]: 914 MFI; EC50 [6]: 1.77 nM; Maximum MFI [6]: 51300 MFI; EC50 [7]: 0.629 nM; Maximum MFI [7]: 4820 MFI; EC50 [8]: 1.26 nM; Maximum MFI [8]: 6790 MFI; EC50, HEK293-hCD40-NFκB reporter, + CHO-K1 [9]: 0.334 nM; EC50, HEK293-hCD40-NFκB reporter, + CHO-K1/hPD-L1 [9]: 0.0312 nM; Maximum (RLU), HEK293-hCD40-NFκB reporter, + CHO-K1 [9]: 3880 RLU; Maximum (RLU), HEK293-hCD40-NFκB reporter, + CHO-K1/hPD-L1 [9]: 4780 RLU; EC50 [10]: 2.5 nM; Maximum MFI [10]: 17700 MFI; EC50, Jurkat-NFAT-hPD1 reporter [11]: 0.122 nM and 0.309 nM; EC50 [12]: 1.02 nM; Maximum MFI [12]: 20100 MFI
